Measurements reported in patent publication US12303551B2, “Cellular immunotherapy compositions and uses thereof” (CERO THERPEUTICS HOLDINGS, INC., priority 2018, dated 2025).

What was measured:
[1] = tested on: SCC152 target cells; assay: Phagocytosis of SCC152 by CD4+ T cell/CER, fluorescence microscopy with hybrid capture; type: cell-based; details: TRAF-domain CERs, 4 hours, 1:1:0.5 (CD8:CD4:target cell); versus CD4+ control + CD8+/E7 TCR
Description: (§1) FIG. 28 is a bar graph representing quantification of CD4+ T cell-CER mediated phagocytosis of SCC152 target cells. Results calculated as ((number of phagocytic target events)/(total number of effectors))*100 from 3×3 40× images, 4 hours after initiation of co-culture assay. CD8+ T cells transduced with HPV16 E7 TCR and CD4+ T cells transduced with selected CERs (CER5, CER17, CER19, CER21, CER23, CER26, CER27, CER103b, CER104, CER105, CER106, or CER116) were co-cultured with SCC152 squamous head and neck carcinoma target cells at a 1:1:0.5 ratio for 4 hours and imaged.
as §1, with “29” for “28”, “(median area ratio” for “((number”, “of” for “of phagocytic”, “events in effector cells*% phagocytosis)” for “events)/(total number of effectors))*100”
(§2) FIG. 55 is a bar graph representing quantification of CD4+ T cell-CER mediated phagocytosis of SCC152 target cells. Percent phagocytosis was calculated as ((number of phagocytic target events)/(total number of effector cells))*100. These numbers were calculated from 3×3 images captured by Keyence BZ-X710 fluorescence microscope at 40× resolution, 4 hours after initiation of co-culture assay. CD8+ T cells transduced with HPV16 E7 TCR and CD4+ T cells transduced with a selected CER (CER29, CER30, CER110, CER112, CER113, CER114, CER116, or CER117) were co-cultured with SCC152 target cells at a 1:1:0.5 ratio (CD8:CD4:target cell) for 4 hours and imaged.
as §2, with “56” for “55”, “Adjusted phagocytic index” for “Percent phagocytosis”, “(median area ratio” for “((number”, “of” for “of phagocytic”, “events in” for “events)/(total number of”, “cells*% phagocytosis).” for “cells))*100.”
Phagocytic activity of CD4+ T cell/CER+CD8+ T cell/HPV16 E7 TCR combinations co-cultured with SCC152 cells was visualized and quantified using KEYENCE BZ-X710 fluorescence microscope, […] and hybrid capture software.

[2] = tested on: SCC152 target cells; assay: Lactate dehydrogenase (LDH) cytotoxicity assay in SCC152 co-culture; type: cell-based; details: CD4+/CER + CD8+/HPV16 E7 TCR 1:1; 4 hours co-culture, varying target:effector ratios
Description: FIG. 19 is a bar graph showing a lactate dehydrogenase (LDH) cytotoxicity assay performed 4 hours after co-culture of CD8+ T cells transduced with a HPV16 E7 TCR and CD4+ T cells transduced with CER104 at a 1:1 ratio with SCC152 target cells at varying target cell:effector cell ratios (0.5:1, 1:1, 1:2.5, 1:5, 1:10, 1:20).
LDH is a cytosolic enzyme that is released by a cell into cell culture media when the plasma membrane is damaged. Thus, LDH's presence in culture medium is a marker for cell death. LDH assays are capable of detecting low level damage to cell membrane which cannot be detected using other methods. LDH may be detected using colorimetric or fluorometric methods.

[3] = tested on: SCC152 HPV+ Head & Neck Squamous Carcinoma; assay: SCC152 xenograft in NSG mice, tumor caliper measurements; type: in vivo; details: 3×10^6 CER CD4+ T cells added to 1×10^6 E7 TCR CD8+ T cells; versus E7 TCR CD8+ T cells alone
From the text: 1×10^^6 CD8^+ T cells engineered with a HPV E7 specific TCR were infused with or without 3×10^6 CD4+ T cells engineered with CER104. Data represents mean value of tumor caliper measurements (n=5 mice per group).
Cellular immunotherapy composition combination comprising HPV E7 specific TCR modified CD8+ T cells (1×10^6) (as described in Example 1) and hCER104 modified CD4+ T cells (3×10^6) were infused into head neck squamous cell cancer mouse model generated by injecting HPV+ SCC152 cells into NSG mice and compared with SCC152 xenograft mice treated with HPV E7 specific TCR modified CD8+ T cells alone (n=5 mice/treatment group).

B1: CER116: Chimeric engulfment receptor: Tim4 binding, Tim4 transmembrane, TRAF6 and TLR8 signaling; SEQ ID NO: 152 (protein)
chain: MSKGLLLLWLVTELWWLYLTPAASEDTIIGFLGQPVTLPCHYLSWSQSRNSMCWGKGSCPNSKCNAELLRTDGTRIISRKSTKYTLLGKVQFGEVSLTISNTNRGDSGVYCCRIEVPGWFNDVKKNVRLELRRATTTKKPTTTTRPTTTPYVTTTTPELLPTTVMTTSVLPTTTPPQTLATTAFSTAVTTCPSTTPGSFSQETTKGSAFTTESETLPASNHSQRSMMTISTDIAVLRPTGSNPGILPSTSQLTTQKTTLTTSESLQKTTKSHQINSRQTILIIACCVGFVLMVLLFLAFLMSLLNCENSCGSSQSESDCCVAMASSCSAVTKDDSVGGTASTGNLSSSFMEEIQGYDVEFDPPLESKYECPICLMALREAVQTPCGHRFCKACIIKSIRDAGHKCPVDNEILLENQLFPDNFAKREILSLMVKCPNEGCLHKMELRHLEDHQAHCEFALMDCPQCQRPFQKFHINIHILKDCPRRQVSCDNCAASMAFEDKEIHDQNCPLANVICEYCNTILIREQMPNHYDLDCPTAPIPCTFSTFGCHEKMQRNHLARHLQENTQSHMRMLAHHLFYWDVWFIYNVCLAKVKGYRSLSTSQTFYDAYISYDTKDASVTDWVINELRYHLEESRDKNVLLCLEERDWDPGLAIIDNLMQSINQSKKTVFVLTKKYAKSWNFKTAFYLALQRLMDENMDVIIFILLEPVLQHSQYLRLRQRICKSSILQWPDNPKAEGLFWQTLRNVVLTENDSRYNNMYVDSIKQY
modifications: CER116, amino acids 1-22 are signal peptide
engulfment of SCC152 target cells (percent phagocytosis, adjusted phagocytic index) [1]: enhanced engulfment

B2: CER117: Chimeric engulfment receptor: Tim4 binding, Tim4 transmembrane, TLR8 and TRAF6 signaling; SEQ ID NO: 153 (protein)
chain: MSKGLLLLWLVTELWWLYLTPAASEDTIIGFLGQPVTLPCHYLSWSQSRNSMCWGKGSCPNSKCNAELLRTDGTRIISRKSTKYTLLGKVQFGEVSLTISNTNRGDSGVYCCRIEVPGWFNDVKKNVRLELRRATTTKKPTTTTRPTTTPYVTTTTPELLPTTVMTTSVLPTTTPPQTLATTAFSTAVTTCPSTTPGSFSQETTKGSAFTTESETLPASNHSQRSMMTISTDIAVLRPTGSNPGILPSTSQLTTQKTTLTTSESLQKTTKSHQINSRQTILIIACCVGFVLMVLLFLAFLHHLFYWDVWFIYNVCLAKVKGYRSLSTSQTFYDAYISYDTKDASVTDWVINELRYHLEESRDKNVLLCLEERDWDPGLAIIDNLMQSINQSKKTVFVLTKKYAKSWNFKTAFYLALQRLMDENMDVIIFILLEPVLQHSQYLRLRQRICKSSILQWPDNPKAEGLFWQTLRNVVLTENDSRYNNMYVDSIKQYMSLLNCENSCGSSQSESDCCVAMASSCSAVTKDDSVGGTASTGNLSSSFMEEIQGYDVEFDPPLESKYECPICLMALREAVQTPCGHRFCKACIIKSIRDAGHKCPVDNEILLENQLFPDNFAKREILSLMVKCPNEGCLHKMELRHLEDHQAHCEFALMDCPQCQRPFQKFHINIHILKDCPRRQVSCDNCAASMAFEDKEIHDQNCPLANVICEYCNTILIREQMPNHYDLDCPTAPIPCTFSTFGCHEKMQRNHLARHLQENTQSHMRMLA
modifications: CER117, amino acids 1-22 are signal peptide
engulfment of SCC152 target cells (percent phagocytosis, adjusted phagocytic index) [1]: enhanced engulfment

B3: CER104: Chimeric engulfment receptor: Tim4 binding, Tim4 transmembrane, TLR8 and DAP12 signaling; SEQ ID NO: 139 (protein)
chain: MSKGLLLLWLVTELWWLYLTPAASEDTIIGFLGQPVTLPCHYLSWSQSRNSMCWGKGSCPNSKCNAELLRTDGTRIISRKSTKYTLLGKVQFGEVSLTISNTNRGDSGVYCCRIEVPGWFNDVKKNVRLELRRATTTKKPTTTTRPTTTPYVTTTTPELLPTTVMTTSVLPTTTPPQTLATTAFSTAVTTCPSTTPGSFSQETTKGSAFTTESETLPASNHSQRSMMTISTDIAVLRPTGSNPGILPSTSQLTTQKTTLTTSESLQKTTKSHQINSRQTILIIACCVGFVLMVLLFLAFLHHLFYWDVWFIYNVCLAKVKGYRSLSTSQTFYDAYISYDTKDASVTDWVINELRYHLEESRDKNVLLCLEERDWDPGLAIIDNLMQSINQSKKTVFVLTKKYAKSWNFKTAFYLALQRLMDENMDVIIFILLEPVLQHSQYLRLRQRICKSSILQWPDNPKAEGLFWQTLRNVVLTENDSRYNNMYVDSIKQYYFLGRLVPRGRGAAEAATRKQRITETESPYQELQGQRSDVYSDLNTQRPYYK
modifications: CER104, amino acids 1-22 are signal peptide
cytolytic activity (LDH release) [2]: enhanced cytolytic activity
tumor killing (tumor volume by caliper) [3]: enhanced tumor killing in vivo
